Assay results published in article PMC2192707.

Target: T1, calnexin (UniProt P35564)
T1 sequence: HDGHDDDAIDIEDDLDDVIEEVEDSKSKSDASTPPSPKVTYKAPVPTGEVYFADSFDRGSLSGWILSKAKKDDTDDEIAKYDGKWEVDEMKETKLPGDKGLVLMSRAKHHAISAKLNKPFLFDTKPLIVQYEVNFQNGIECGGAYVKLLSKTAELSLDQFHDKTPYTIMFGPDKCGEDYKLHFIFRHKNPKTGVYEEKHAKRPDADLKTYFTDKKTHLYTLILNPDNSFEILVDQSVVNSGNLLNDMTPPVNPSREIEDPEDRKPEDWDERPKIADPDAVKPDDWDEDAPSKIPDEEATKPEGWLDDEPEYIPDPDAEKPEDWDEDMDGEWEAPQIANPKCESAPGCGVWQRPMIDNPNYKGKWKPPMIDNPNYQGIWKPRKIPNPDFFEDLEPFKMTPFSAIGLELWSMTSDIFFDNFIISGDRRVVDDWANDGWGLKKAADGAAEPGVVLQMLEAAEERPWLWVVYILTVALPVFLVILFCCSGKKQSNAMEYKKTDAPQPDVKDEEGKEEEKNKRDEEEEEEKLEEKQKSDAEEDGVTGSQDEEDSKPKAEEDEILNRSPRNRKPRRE
Conditions: co-IP

Substance	percent of heterodimers associated with calnexin
H-2Kb class I heavy chain	~45% ofK b heterodimers
H-2Db class I heavy chain (endogenous in EL4)	85% ofD b heterodimers
